Series [1] can be described thus: Pharmacokinetic study in the dog (blood, HPLC fluorescence). It counts as in vivo. How it is done:
Peripheral blood samples were taken at different times following infusion for pharmacokinetic analysis.
Blood samples (2.5 mL) were collected in 5 mL in trisodium citrate tubes (Sarstedt S-Monovette® 9NC) containing 2.5 mL of 5% TFA (v/v) and vortexed for 5 seconds before storage at −80° C. (for less than two weeks).
Samples were then analyzed after a TFA and acetonitrile extraction by an HPLC fluorescence method, described below. […] Whole blood samples were acidified with TFA to protect the ester link of the conjugate against hydrolysis and allow protein precipitation to improve conjugate and SN38 recovery.
Five hundred microliters of each sample were then placed in 1.5 mL micro-centrifuge tubes to and centrifuged at 16000×g 3 min at +4° C. […] Methanol (100 μL) was then immediately added and the mixture stirred vigorously (vortex) for 5 seconds. Samples were then centrifuged at 16000×g, 3 min at room temperature.
One hundred and fifty microliters of the supernatant was recovered for HPLC analysis.
DPV1047-BCH-SN38 and its metabolite SN38 were separated by high-performance liquid chromatography (HPLC Agilent 1100 with a fluorescence detector) using the following method: […]

Series [2] is described as follows: Stability of conjugates in citrated plasma at 37° C. (half life time, HPLC fluorescence). In kind it is in vitro ADME. The following applies: dog. The gist of the method:
(§1)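 Conjugates at 2.55 μM incubated at 37° C in citrated plasma of several species, including human and dog. After TFA/acid extraction, released free camptothecin derivative (e.g. SN38) measured by reversed-phase C18 HPLC with fluorescence detection; half-life taken as time to 50 mol% release.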

Experiment in series [3]: as above
In kind it is in vitro ADME, human. The following applies: for half-life: human, plasma. The gist of the method:
as §1

Experiment in series [4]: as above
In kind it is in vitro ADME. The following applies: DPV1047-linker-SN38, 2.55 μM. How it is done: The stability of the conjugates was tested in citrated plasma (10% (v/v) sodium citrate buffer, 0.106M) from different species (see Table 1 below). The conjugates at 2.55 μM were incubated at 37° C. in plasma. Samples were analysed using the HPLC fluorescence method described below (see chromatographic equipment and conditions) following TFA/acetonitrile extraction and the amount of free camptothecin, analogs or derivatives thereof (e.g. SN38) released by the conjugates was measured.
Chromatographic equipment and conditions: 150 μL of each sample were placed in 1.5 mL micro-centrifuge tubes. 450 μL of 5% (v/v) TFA in H2O was added to each tube and the mixture was vortexed for 5 seconds. Samples were then centrifuged at 16000 g, 3 minutes at +4° C. 100 μL of supernatant were placed in 1.5 mL micro-centrifuge tubes. Methanol (100 μL) was then immediately added and vortexed for 5 seconds. Samples were then centrifuged at 16000 g, 3 minutes at room temperature. 150 μL of supernatant were recovered for HPLC analysis. Conjugates, metabolites and camptothecin derivative (i.e. SN38) were separated by high-performance liquid chromatography (HPLC; Agilent 1100 series equipped with a fluorescence detector) using a 4.6×100 mm ([…] particle size) Luna C18(2) column (Phenomenex ref. 00D-4251-E0, Le Pecq, France). The aqueous component of the mobile phase (A) was 0.1% (v/v) TFA in water. The organic modifier (B) was acetonitrile containing 0.1% (v/v) TFA. For the conjugate and its metabolites an elution gradient increasing linearly the proportion of B from 15 to 37% in 2 min, from 37 to 47% in 6 min, followed by 2 min at 90% was applied with a constant flow rate of 1.2 mL/min. The proportion of B was then returned to the initial condition for 3.0 min.
The half life time of conjugate corresponds to the time necessary to have 50% by mole of free camptothecin, analogs or derivatives thereof released by the conjugates of the invention. In human plasma, the half life time of conjugate DPV1047-linker #1-SN38 (less than 5 mins) was shorter than that of conjugate DPV1047-linker #2-SN38 (6-7 mins), which, in turn, was shorter than that of conjugate DPV1047-linker #3-SN38 (12 mins).

In another series the test system is NCI-H460 lung carcinoma. As to the kind of experiment: Antitumor efficacy in NCI-H460 lung carcinoma model in nude mice. Conditions: Table 7, i.v. Q2D3 × 3 W.

Where two headings read alike, the source gives them in different places.

`CCc1c2c(nc3ccc(OC(=O)[C@H]4CC[C@H](CNC(=O)C5CCC(CN6C(=O)CC(SC[C@H](N)C(=O)N[C@H](C(=O)N[C@@H](CCCCN)C(=O)N[C@@H](CCCNC(=N)N)C(=O)NCC(=O)N[C@@H](CC(C)C)C(=O)N[C@@H](CCCCN)C(=O)N[C@@H](CC(C)C)C(=O)N[C@@H](CCCNC(=N)N)C(=O)N[C@@H](Cc7c[nH]cn7)C(=O)N[C@H](C(=O)N[C@@H](CCCNC(=N)N)C(=O)N7CCC[C@H]7C(=O)N[C@@H](CCCNC(=N)N)C(=O)N[C@H](C(=O)N[C@H](C(=O)N[C@@H](CCCNC(=N)N)C(=O)N[C@@H](CCSC)C(=O)N[C@@H](CC(=O)O)C(=O)N[C@H](C(=O)O)C(C)C)[C@@H](C)O)C(C)C)C(C)C)C(C)C)C6=O)CC5)CC4)cc13)-c1cc3c(c(=O)n1C2)COC(=O)[C@]3(O)CC` (single isomer, unassigned) [DPV1047-BCH-SN38]: the “circulating half life time in the blood compared to DPV1047-MIC-SN38” value in series [1] (dog blood (FIG. 2)) is listed as “longer”. Also, the “AUC of SN38 compared to DPV1047-MIC-SN38” value in series [1] (dog blood, equimolar dose (FIG. 1)) is recorded as “significantly greater”. Moreover, in series [1] (dog blood, non-toxic doses (DPV1047-BCH-SN38 ≦20 mg/kg, DPV1047-MIC-SN38 ≦50 mg/kg)), the “SN38 Cmax and AUC versus dose of the conjugate” value was “increased linearly with the dose”. The half-life in series [2] (DPV1047-linker-SN38, 2.55 μM, citrated plasma, read-out: Half life time, Dog plasma) was found to be 4.5 h; in series [2] (Table 10, SN38 conjugates, read-out: Dog Plasma Half life time), 4.33 h; in series [2] (Table 12, CPP-linker #5-SN38 conjugates incl. D conformation, read-out: Dog Plasma Half life time) it was 4 h; in series [3] (DPV1047-linker-SN38, 2.55 μM, citrated plasma, read-out: Half life time, Human plasma), 6.67 h; in series [3] (Table 10, SN38 conjugates, read-out: Human Plasma Half life time), 6 h; in series [3] (Table 12, CPP-linker #5-SN38 conjugates incl. D conformation, read-out: Human Plasma Half life time), 6.37 h. Also, the half-life in series [4] (time to 50% by mole free SN38 released, read-out: Half life time, Mouse plasma) is < 0.05 h; in series [4] (monkey) it was 4.83 h; in series [4] (rat), 0.233 h. Further, in series [3] (human plasma), the “half life time, times longer than the DPV1047-linker #2-SN38 conjugate” value worked out at 60 times. Moreover, the “Optimal T/C %” value is recorded as 47.5% in the series on NCI-H460 lung carcinoma (12.5 μmol/kg) and 22.9% with NCI-H460 lung carcinoma (25 μmol/kg). Besides, the TGI % was 52.5% in the series on NCI-H460 lung carcinoma (12.5 μmol/kg) and 77.1% in the series on NCI-H460 lung carcinoma (25 μmol/kg).

Values taken from patent US8410045B2, “Camptothecin-peptide conjugates and pharmaceutical compositions containing the same” (Drais Pharmaceuticals, Inc., priority 2006, dated 2013).
